The results in this text go back to patent publication US20140087995A1 (published 2014).

In this assay the target is T1, human calcitonin receptor (human, UniProt P30988 25-474).
T1 sequence (looked up): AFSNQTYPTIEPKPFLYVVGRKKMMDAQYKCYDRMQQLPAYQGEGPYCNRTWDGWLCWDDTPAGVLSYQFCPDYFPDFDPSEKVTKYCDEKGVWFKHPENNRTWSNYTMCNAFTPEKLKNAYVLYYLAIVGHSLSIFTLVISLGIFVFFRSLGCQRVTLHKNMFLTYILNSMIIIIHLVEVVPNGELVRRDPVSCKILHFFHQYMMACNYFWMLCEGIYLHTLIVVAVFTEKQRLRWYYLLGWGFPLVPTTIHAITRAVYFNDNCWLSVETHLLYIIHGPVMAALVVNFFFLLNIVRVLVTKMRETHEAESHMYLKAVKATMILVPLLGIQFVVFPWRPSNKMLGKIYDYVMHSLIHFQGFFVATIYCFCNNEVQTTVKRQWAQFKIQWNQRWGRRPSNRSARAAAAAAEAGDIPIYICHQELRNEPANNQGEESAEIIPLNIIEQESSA
As to the kind of experiment: cell-based or functional assay.

Numbered stars: 1 amine (or outer) side, 2 acyl side, 3 side chain; on linkers, the order of the positions; unused ones are H or OH. Bridge positions count the residues as written; N and C are the ends. Side chains are listed from the residue outwards. Ends that are not written are not given here. * marks the point of attachment. C20 diacid = O=C(O)CCCCCCCCCCCCCCCCCCC(=O)*; γGlu = O=C(O)[C@H](CCC(=O)[*:2])N[*:1]

B1: N^ε1-[(4S)-4-carboxy-4-(19-carboxynonadecanoylamino)butanoyl]-[Glu14,Arg17,Pro21,Pro27,His34,Glu35]-h-amylin (peptide)
peptide: K([γGlu-C20 diacid])CNTATCATQRLAEFLRHSSPNFGAIPSSTNVGHETY-NH2
modifications: disulfide 2-7; N-terminus assumed
SMILES: CC[C@H](C)[C@H](NC(=O)[C@H](C)NC(=O)CNC(=O)[C@H](Cc1ccccc1)NC(=O)[C@H](CC(N)=O)NC(=O)[C@@H]1CCCN1C(=O)[C@H](CO)NC(=O)[C@H](CO)NC(=O)[C@H](Cc1c[nH]cn1)NC(=O)[C@H](CCCNC(=N)N)NC(=O)[C@H](CC(C)C)NC(=O)[C@H](Cc1ccccc1)NC(=O)[C@H](CCC(=O)O)NC(=O)[C@H](C)NC(=O)[C@H](CC(C)C)NC(=O)[C@H](CCCNC(=N)N)NC(=O)[C@H](CCC(N)=O)NC(=O)[C@@H](NC(=O)[C@H](C)NC(=O)[C@@H]1CSSC[C@H](NC(=O)[C@@H](N)CCCCNC(=O)CC[C@H](NC(=O)CCCCCCCCCCCCCCCCCCC(=O)O)C(=O)O)C(=O)N[C@@H](CC(N)=O)C(=O)N[C@@H]([C@@H](C)O)C(=O)N[C@@H](C)C(=O)N[C@@H]([C@@H](C)O)C(=O)N1)[C@@H](C)O)C(=O)N1CCC[C@H]1C(=O)N[C@@H](CO)C(=O)N[C@@H](CO)C(=O)N[C@H](C(=O)N[C@@H](CC(N)=O)C(=O)N[C@H](C(=O)NCC(=O)N[C@@H](Cc1c[nH]cn1)C(=O)N[C@@H](CCC(=O)O)C(=O)N[C@H](C(=O)N[C@@H](Cc1ccc(O)cc1)C(N)=O)[C@@H](C)O)C(C)C)[C@@H](C)O
notes: synthetic peptide amide; also called compound 107
Consider B1, for which the “hCTR funct. EC50 (pM)” value is 2540 pM.

B2: N^ε1-[(4S)-4-carboxy-4-(19-carboxynonadecanoylamino)butanoyl]-[Glu14,Arg17,Pro21,Pro27,His35]-h-amylin (peptide)
peptide: K([γGlu-C20 diacid])CNTATCATQRLAEFLRHSSPNFGAIPSSTNVGSHTY-NH2
modifications: disulfide 2-7; N-terminus assumed
SMILES: CC[C@H](C)[C@H](NC(=O)[C@H](C)NC(=O)CNC(=O)[C@H](Cc1ccccc1)NC(=O)[C@H](CC(N)=O)NC(=O)[C@@H]1CCCN1C(=O)[C@H](CO)NC(=O)[C@H](CO)NC(=O)[C@H](Cc1c[nH]cn1)NC(=O)[C@H](CCCNC(=N)N)NC(=O)[C@H](CC(C)C)NC(=O)[C@H](Cc1ccccc1)NC(=O)[C@H](CCC(=O)O)NC(=O)[C@H](C)NC(=O)[C@H](CC(C)C)NC(=O)[C@H](CCCNC(=N)N)NC(=O)[C@H](CCC(N)=O)NC(=O)[C@@H](NC(=O)[C@H](C)NC(=O)[C@@H]1CSSC[C@H](NC(=O)[C@@H](N)CCCCNC(=O)CC[C@H](NC(=O)CCCCCCCCCCCCCCCCCCC(=O)O)C(=O)O)C(=O)N[C@@H](CC(N)=O)C(=O)N[C@@H]([C@@H](C)O)C(=O)N[C@@H](C)C(=O)N[C@@H]([C@@H](C)O)C(=O)N1)[C@@H](C)O)C(=O)N1CCC[C@H]1C(=O)N[C@@H](CO)C(=O)N[C@@H](CO)C(=O)N[C@H](C(=O)N[C@@H](CC(N)=O)C(=O)N[C@H](C(=O)NCC(=O)N[C@@H](CO)C(=O)N[C@@H](Cc1c[nH]cn1)C(=O)N[C@H](C(=O)N[C@@H](Cc1ccc(O)cc1)C(N)=O)[C@@H](C)O)C(C)C)[C@@H](C)O
notes: synthetic peptide amide
Regarding B2, the “hCTR funct. EC50 (pM)” value was 5580 pM.
